Measured values reported in IntAct's records for PubMed 21382479.

B1: Caveolin-1 (Homo sapiens), Q03135 (parent)
chain: MSGGKYVDSEGHLYTVPIREQGNIYKPNNKAMADELSEKQVYDAHTKEIDLVNRDPKHLNDDVVKIDFEDVIAEPEGTHSFDGIWKASFTTFTVTKYWFYRLLSALFGIPMALIWGIYFAILSFLHIWAVVPCIKSFLIEIQCISRVYSIYVHTVCDPLFEAVGKIFSNVRINLQKEI
partner: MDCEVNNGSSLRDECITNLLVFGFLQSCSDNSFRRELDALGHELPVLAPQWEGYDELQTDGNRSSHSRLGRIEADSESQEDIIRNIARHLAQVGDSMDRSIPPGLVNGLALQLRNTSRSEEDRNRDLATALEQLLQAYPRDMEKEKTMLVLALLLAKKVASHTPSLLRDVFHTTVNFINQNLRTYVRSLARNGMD

Variants of: B1
Settings: with bid_human BID

effect of a mutation on the interaction | Variant
disrupting interaction | Y14F
